# Reference: the supplement of paper PMC9170038
# Test system: MS2 coat protein
# Assay: apparent KD of MS2 coat protein; designed switch direction (-1 OFF switch, 1 ON switch): 1; higher = weaker reporter binding
# In short: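 On Illumina chips, designed RNA switches with common flanks were made by stalled E. coli RNA polymerase. Titrations with SNAP-549-labelled MS2 coat protein, doubling from 0.7 or 1.5 nM to 3 µM, were done with no input, with 200 uM small-molecule ligand, or with an oligonucleotide input. Apparent KD is the median per design over clusters, from curve fits of normalised cluster fluorescence.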
# [1] = input ligand: microRNA oligo, concentration not stated
# [2] = Eterna round: R95, input ligand: FMN 200 uM
# [3] = Eterna round: R95, input ligand: microRNA oligo, concentration not stated
# [4] = Eterna round: R95, input ligand: none
Sequence,apparent KD of MS2 coat protein (input ligand: FMN 200 uM) [nM],apparent KD of MS2 coat protein [1] [nM],apparent KD of MS2 coat protein (input ligand: none) [nM],apparent KD of MS2 coat protein [2] [nM],apparent KD of MS2 coat protein [3] [nM],apparent KD of MS2 coat protein [4] [nM]
"AUUAUUAGUGCAGGAUAUGAUUAACAUGAGGAUCACCCAUGUGGUGUUGUGAGUAAGGAGAGUGAUCAGAAGGGCAUUUUUUUU [JMF's solution 21] (Eterna round: R96, puzzle: Same State NG 2)",659,333,406,,,
ACUUGCUUUUUGCUCAUUUUAUGUCCGAAACAUGAGGAUCACCCAUGUGUAGAUUAUGUGUUGUUUUUGAUACGUGA [JR_SHM208A_Sub067] (puzzle: Sensor for hsa-mir-208a),,,,24.6,20.7,26.3
"UUAUUAAUUACAUGAGGAUCACCCAUGUUAAAUAGUCAGAGACAGGAUAUAGAAGUCUCGUUUUACUAGAAGGGUCAUUAUAUG [JR_SSNG3_Sub013] (Eterna round: R96, puzzle: Same State NG 3)",40.7,27.2,35.8,,,
"AUAAAAGAAAGAAACACAUGAGGAUCACCCAUGUAACGACUACAGGAUAUGCUGCACAGUCCAAAGCAGAAGGGUGGUCAAAAC [Qulaesed] (Eterna round: R96, puzzle: Same State NG 3)",280,111,102,,,
"UAUUUAAUCGUAGGAUAUAGAGUGAAAUUUGUACUAGAAGGACGUAACAUGAGGAUCACCCAUGUGGUAAGUGGGACAUAGUAU [JR_SSNG1_Sub037] (Eterna round: R96, puzzle: Same State NG 1)",44.1,27,39.7,,,
"GAGUAGUUGAAAGGAUAUCGAUUGUUAUAGAAUCGAGAAGGUUCUAACAUGAGGAUCACCCAUGUAGGACUAUUCCUGUGUAUC [Parity 77 - Jieux - Same State NG 1] (Eterna round: R96, puzzle: Same State NG 1)",,9.75,,,,
"UAAGGACAUGAGGAUCACCCAUGUGCUUCAUAUGGAGAAACUCAGGAUAUGCUGAGGAUCACCCAGCAGAAGGGAGAUCCGAGG (Eterna round: R96, puzzle: Same State NG 3)",206,279,281,,,
AGGCAAGCUUUUUGCUGGUAUGGAGGAUAACAUGAGGAUCACCCAUGUAUUGGAGGUGUUGAAGAUUUGAGAAAGAA [JR_SHM208A_Sub005] (puzzle: Sensor for hsa-mir-208a),,,,118,149,139
"GGAGCCGGCCUAGGAUAUUUCAUAAUAAUACAUGAGGAUCACCCAUGUAGGCCAGAAGGCCUUGGGAAGAAGGAGGUCGGCUCC [Loop Effect - U26,U29] (Eterna round: R96, puzzle: Same State NG 2)",14.1,26,43.2,,,
"AUAUGAGGAGCAGGAUAUGCGAAGAAGAAAGAAGUAGAAGGGCUCAUGGGACGACAUGAGGAUCACCCAUGUACUUCCCGAUGA [AK SSNG1-V2-7] (Eterna round: R96, puzzle: Same State NG 1)",24.6,26.6,37.7,,,
"UUACUCAUGUAAGGAUAUGCAGCCGAAACGGCUGCAGAAGGUACUAUAAUACAUGAGGAUCACCCAUGUCUCUAUUAUUUAGUU [Mat - Same State NG 1 - JL mod - D94] (Eterna round: R96, puzzle: Same State NG 1)",73.4,38.2,58,,,
"CUGACGUGAUCAGGAUAUUGUAAGACAAUGUUGCAAGAAGGGAUUAAUGAGCCCGAACAGACAUGAGGAUCACCCAUGUGUCAG [Eternabot solution 41] (Eterna round: R96, puzzle: Same State NG 1)",69.5,51.6,67.6,,,
"AGGCUGAGUCGAGGAUAUGAUCUUCAUAUAAUAACAUGAGGAUCACCCAUGUAUAAUUACAUGGAUCAGAAGGCGACUCAGCCA [SSNG2/13-B1] (Eterna round: R96, puzzle: Same State NG 2)",35.4,414,584,,,
"GCCGCGUUUCGCGCCUACAUGAGGAUCACCCAUGUUUGUAGGCAGGAUAUCGCUUGCUUUGCGGGCGAGAAGGGCUGUUGUGGC [salish99_SSNG3_R04_018] (Eterna round: R96, puzzle: Same State NG 3)",36.8,56.8,51.6,,,
"UGCCUGAGUCGAGGAUAUUAUGGAUCAAUUAAUACAUGAGGAUCACCCAUGUAAUUAAUUUAACAUGAGAAGGCGACUCAGGCU [SSNG2/10-A3] (Eterna round: R96, puzzle: Same State NG 2)",,7.93,,,,
AACAAUCUAUCUGAGGAUAUCAUGAAAUAAACAUGAGGAUCACCCAUGUUCAGGAAAACUGCAUAUGAGAAGGCAGAUAGAUUGA [salish99_ss2_r3_035] (puzzle: Same State 2),,,,10.4,16.2,15.3

Sequence,apparent KD of MS2 coat protein (input ligand: FMN 200 uM) [nM],apparent KD of MS2 coat protein [1] [nM],apparent KD of MS2 coat protein (input ligand: none) [nM],apparent KD of MS2 coat protein [2] [nM],apparent KD of MS2 coat protein [3] [nM],apparent KD of MS2 coat protein [4] [nM]
"UUAUUAAUUACAUGAGGAUCACCCAUGUUUUUUUGUCAGAGACAGGAUAUAGAAGUCUCGUUUUACUAGAAGGGUCAUUAUAUG [JR_SSNG3_Sub014] (Eterna round: R96, puzzle: Same State NG 3)",25.6,19,29.7,,,
GGAGAGAGAGCACAGGAUAUUUAAGGAGAGACAUGAGGAUCACCCAUGUGAGAGAGAGAGGAGAGAGAGAAGGGUGAGAGAGAGG [Altered State 2-17 - Jieux - Same State 2] (puzzle: Same State 2),,,,109,79.1,83.9
"UGUUCGUAGGAAGGAUAUCGAAAUAAAGGCGUCCACAUGAGGAUCACCCAUGUCGGCGGACCAAACGAGAAGGUCUACCCGGAC [Eternabot solution 12] (Eterna round: R96, puzzle: Same State NG 2)",9.42,8.37,11.6,,,
"UGUUGUAUUACAGGAUAUCUAUUAUUUUUAUGUAGAGAAGGGUAUUCACAUGAGGAUCACCCAUGUAUAUACGAGGAAGUUGUG [JMF's solution 29] (Eterna round: R96, puzzle: Same State NG 1)",,32.9,,,,
UUGCAGUCAGGUGAGGAUAUCAUGAAUUAAACAUGAGGAUCACCCAUGUGCUGCCUUGCAGCAUAUGAGAAGGCACCUGGCUGCU [JL-ss2-3.01 Brourd Mod] (puzzle: Same State 2),,,,65.2,185,640
AACGUGGGAGCACAGGAUAUGCAUUGCUCCACAUGAGGAUCACCCAUGUAGGCAAAUAGGGAGCAGCAGAAGGGUGGUCCGACAC [Orraonrexe] (puzzle: Same State 2),,,,17.3,8.24,21.8
"GUAGCAUACCGAGGAUAUUCAUAUACAUGAGGAUCACCCAUGUUAAAUAAUAGGCGAAAGCCUUGGGAGAAGGCGGAAUGCUAC [Xeonanis - 20 Mod70] (Eterna round: R96, puzzle: Same State NG 2)",10.3,9.72,12.6,,,
UCUUGGUUUUUGCUCGUUUUUUGUGUUGAACAUGAGGAUCACCCAUGUAUUGUACGGUCCAAUUUAAUAAUAGUCCG [JMF 65] (puzzle: Sensor for hsa-mir-208a),,,,26.6,19.7,32.4
"GAGCCAGUCCGAGGAUAUUCAUUAAAUUAAAUACAUGAGGAUCACCCAUGUAGGCGAGAGCCUUGGGAGAAGGCGGACUGGCUC [Xeonanisa>>4] (Eterna round: R96, puzzle: Same State NG 2)",15.5,53.8,97.6,,,
"GUGGUCUGACAUGAGGAUCACCCAUGUGGAAUAAAUAAGGGUUAGGAUAUCUUGAGGAUCACCCAAGAGAAGGGAUGGUUGGUG (Eterna round: R96, puzzle: Same State NG 3)",125,90.7,124,,,
CGCCGACAUGAGGAUCACCCAUGUGAGCGACUCACAGGAUAUACGCGAUAACAAAGUCGCGUAGAAGGGUGCUCCU [Iscezaso] (puzzle: Same State 1),,,,23.4,19.2,23.3
"AUUACUAGCAUAGGAUAUCAUGCGAAAAUUGCGUGAGAAGGGUGGACGCUGUCAUUCACGGAAGACAUGAGGAUCACCCAUGUC [SameState NG1 #74] (Eterna round: R96, puzzle: Same State NG 1)",142,68.5,94,,,
"AGCUAUCGAAAACGAUAGCAAAGGCAUGUACAUGAGGAUCACCCAUGUCAUGUACAAGCUUUUUGCUCGUCUUAAAA [Zipper 23 - 3] (Eterna round: R96, puzzle: Sensor for hsa-mir-208a)",660,14.1,440,,,
"GAGCCAGUCCGAGGAUAUUCGUAGUAACACAUGAGGAUCACCCAUGUGGGCUCAGAAGAGCCCUUGGAGAAGGCGGGCUGGCUC [SS-NG2-LRO19] (Eterna round: R96, puzzle: Same State NG 2)",7.41,9.15,12.4,,,
"AUCCGAACCAUAGGAUAUACUGGCCUCGGGCCAGUAGAAGGGUGGGACAUGAGGAUCACCCAUGUAAAGCACAAUCAGUGCAAA [Ceramace] (Eterna round: R96, puzzle: Same State NG 1)",167,119,151,,,
